Residue numbers refer to the chain shown, from its start. Names may count otherwise.
Legend:
[1] = Differential scanning fluorimetry (DSF) melting temperature; format: physicochemical
Method: DSF was performed on a LC480 Lightcycler Instrument II (Roche). Purified recombinant protein was diluted to 5 μM in DSF buffer (PBS, pH 7.4, Sypro Orange 5×) with small molecule (10 μM VTX) or vehicle (0.05% DMSO) and then heated with a temperature gradient (0.01° C./s) from 25 to 95° C. Data were continuously acquired at ˜465 nm (excitation) and ˜580 nm (emission). Data was analyzed to generate first derivative curves in which the curve maximum was reported as the melting temperature of the protein.

human PBMCs = test: Surface staining of human PBMCs by flow cytometry; format: cell-based; details: TCRab+, CD4+ and CD8+ subsets
Method: (§1) FIG. 32 depicts Ab1070 binding to human and cynomolgus macaque PBMCs. Binding was measured by flow cytometry using a secondary fluorescent antibody (IgG-PE). T-cell subsets were identified using additional fluorescent antibodies against TCRab, CD4 and CD8 and gated prior to quantifying the median fluorescence intensity (MFI) of the IgG-PE channel. […] The assay was performed with up to 10 μM antibodies (titrated as indicated).
(§2) Peripheral blood mononuclear cells (PBMCs) from healthy cynomolgus macaques (Chinese origin) were obtained commercially (iQ Biosciences, Berkeley, CA). Peripheral blood mononuclear cells (PBMCs) from healthy human donors were isolated from leukapheresis packs (leukopaks) from deidentified healthy adult donors (StemCell Technologies, Vancouver, BC). Human PBMCs were isolated using the EasySep Direct Human PBMC Kit (StemCell Technologies) then cryopreserved in DMEM with 10% FBS and 10% DMSO. Frozen PBMC cryovials were thawed on the day of experiments and washed complete growth media (DMEM+10% FBS+1% penicillin/streptomycin). Cells were resuspended in growth media and transferred to a 96-well U-bottom plate at 55,000 cell/well. Human TruStain FcX (Fc Receptor Blocking Solution; Catalog number 422302; BioLegend, San Diego, CA) was added at a 1:20 final dilution of the manufacturer's stock and incubated for 10 minutes at room temperature in a volume of 25 μL. […]

cynomolgus macaque PBMCs = test: Surface staining of cyno PBMCs by flow cytometry; format: cell-based; details: TCRab+, CD4+ and CD8+ subsets
Method: as §1, §2

[2] = Ab0640 pharmacokinetics in mice; format: in vivo; details: 6.7 mg/kg single IV, C57BL/6 mice
Method: Plasma samples were collected at 30 min, 24 hr, 72 hr, and 168 hr and concentrations of the antibodies were determined by ELISA.
Female […] mice (age 10-12 weeks) were distributed into 2 groups (n=5 per group). Antibodies were diluted in sterile PBS and injected intravenously at 6.7 mg/kg. Blood (55 μL from the retroorbital sinus) was sampled serially at 4 time points (30 min, 1 day, 3 days, 7 days), processed to plasma, diluted 1:10 in 50% glycerol+PBS, then cryopreserved. Plasma concentrations were quantified using an anti-human IgG sandwich ELISA that was developed and qualified in-house. The capture antibody for the ELISA was goat anti-human IgG (Cat. No. 2049-01; Southern Biotech, Birmingham, AL) coated on 96-well Nunc-Immuno Maxisorp plates (Thermo Fisher Scientific) at […] for 1 hr at 37° C. The detection antibody was mouse anti-human IgG Fc-HRP (Cat. No. 9042-05; Southern Biotech, Birmingham, AL) at 1:32,000 dilution of the manufacturer stock. ELISA coating, blocking, wash, and TMB substrate buffers from BioLegend were used according to the manufacturer's instructions. Non-compartmental pharmacokinetic parameters were calculated using the PKNCA package for R (doi: 10.1007/s10928-015-9432-2).

HCT-116-NR target cells = test: Real-time TDCC by time-lapse microscopy; format: cell-based, human; details: 10 nM antibodies, 250 nM indinavir, 5 μM quencher, 120 hours
Method: FIG. 42 depicts real-time measurement of TDCC in a co-culture assay for three exemplary T-LITE pairs. […] T-LITE antibodies were held constant at 10 nM with indinavir (250 nM) added to some wells, as indicated (“ON”). In some wells, a conventional TCE (Ab1007) was included as a positive control. In some wells, an anti-indinavir quencher antibody (5 μM) was added at various time points, as indicated (“OFF”). […] In some wells, no indinavir was added (“Always OFF”). Killing was interrupted by the addition of the quencher at earlier time points (“OFF at” 30 min, 24 h, 44 h, or 49 h). Killing occurred at levels similar to the no-quencher condition (“Always ON”) if the quencher was added at the latest time point (68 h). The assay was performed with human T-cells and HCT-116-NR target cells for 120 hours.
The kinetics of TDCC in a co-culture assay were measured using time-lapse microscopy (FIG. 42). […] To test how T-LITE-activated T-cells respond to the removal of indinavir, an “anti-indinavir quencher” was used. […]
Co-cultures of magnetically isolated human T-cells and target cells were prepared as described above for TDCC assays, with some modifications. […] The IncuCyte software was used to quantify Normalized target cell abundance (red object area per image, normalized to T=0 h).

UPLC-SEC retention time = format: physicochemical; details: Table 13
Method: LS2B antibody clones derived from the phage display campaign were profiled by analytical UPLC-SEC using a Thermo Vanquish Flex HPLC with a MabPAC 4.6×150 mm SEC column equilibrated in 1×PBS-HCl at pH 7.0. Retention time of each clone was compared to Ab0254 to assess overall developability.
UPLC-SEC was performed on a Thermo Scientific Vanquish Flex UHPLC system. Protein was diluted to 1-5 μM in HBS buffer and then 1.5-10 μL of sample was injected onto a MabPAC 4.6×150 mm in 1×PBS-HCl at pH 7.0. Data were continuously acquired at ˜280 nm and processed on the Chromeleon 7 software (Thermo Scientific). For the low pH hold assay, prior to injection on the UHPLC, samples were held at pH 3.5 for 1 hour followed by neutralization. For the complex assembly assay, the MabPAC 4.6×150 mm column was pre-equilibrated with 1×PBS-HCl at pH 7.0 and 10 μM Indinavir.

B1: hSP34v68: humanized SP34 anti-CD3 clone v68, scFv-Fc (antibody)
heavy: EVQLVESGGGLVQPGGSLRLSCAASGFTFNTYAMNWVRQAPGKGLEWVARIRSKYNNYATYYADSVKGRFTISRDDSKSILYLQMNSLRAEDTAVYYCVRHGNFGNSYVSWFAYWGQGTLVTVSSGGGGSGGGGSGGGGSDIQVTQSPSSLSASVGDRVTITCRSSTGAVTTSNYANWVQQKPGKAFKGLIGGTNKLASGVPSRFSGSLSGDDATLTISSLQPEDFATYYCALWYSNLWVFGQGTKLEIKGGGGSDKTHTCPPCPAPEAAGGPSVFLFPPKPKDTLMISRTPEVTCVVVDVSHEDPEVKFNWYVDGVEVHNAKTKPREEQYNSTYRVVSVLTVLHQDWLNGKEYKCKVSNKALGAPIEKTISKAKGQPREPQVYTLPPSRDELTKNQVSLTCLVKGFYPSDIAVEWESNGQPENNYKTTPPVLDSDGSFFLYSKLTVDKSRWQQGNVFSCSVMHEALHNHYTQKSLSLSPGK
modifications: REGION 1..482: note = Ab0640 HC
notes: humanized SP34 anti-CD3 clone v68, scFv-Fc
**Q.** Which “TM (° C.)” value ([1]; DSF, hSP34v68 R1 variants (Table 23)) does the source give for B1 here?
**A.** 60.7 °C

**Q.** What about the “binding to human PBMC T-cell subsets” value (human PBMCs) of the same molecule?
**A.** Detectable and saturable binding

**Q.** What about the “binding to cyno PBMC T-cell subsets” value (cynomolgus macaque PBMCs) of the same molecule?
**A.** Detectable and saturable binding

**Q.** What about the half-life [2] of the same molecule?
**A.** 112 h

B2: Ab1007: conventional TCE positive control (antibody)
heavy 1: EVQLVQSGPGLVQPGGSVRISCAASGYTFTNYGMNWVKQAPGKGLEWMGWINTYTGESTYADSFKGRFTFSLDTSASAAYLQINSLRAEDTAVYYCARFAIKGDYWGQGTLLTVSSASTKGPSVFPLAPSSKSTSGGTAALGCLVKDYFPEPVTVSWNSGALTSGVHTFPAVLQSSGLYSLSSVVTVPSSSLGTQTYICNVNHKPSNTKVDKKVEPKSCDKTHTCPPCPAPEAAGGPSVFLFPPKPKDTLMISRTPEVTCVVVDVSHEDPEVKFNWYVDGVEVHNAKTKPREEQYNSTYRVVSVLTVLHQDWLNGKEYKCKVSNKALGAPIEKTISKAKGQPREPMVFDLPPSREEMTKNQVSLWCMVKGFYPSDIAVEWESNGQPENNYKTTPPVLDSDGSFFLYSKLTVDKSRWQQGNVFSCSVMHEALHNHYTQKSLSLSPGKHHHHHH
heavy 2: B1 heavy with S199P, S389I, D391E, E392L, L393M, K395S, T401S, L403A, Y442V
light: DIQMTQSPSSLSASVGDRVTITCRSTKSLLHSNGITYLYWYQQKPGKAPKLLIYQMSNLASGVPSRFSSSGSGTDFTLTISSLQPEDFATYYCAQNLEIPRTFGQGTKVELKRTVAAPSVFIFPPSDEQLKSGTASVVCLLNNFYPREAKVQWKVDNALQSGNSQESVTEQDSKDSTYSLSSTLTLSKADYEKHKVYACEVTHQGLSSPVTKSFNRGEC
modifications: REGION 1..452: note = Ab1007 Knob HC; REGION 1..482: note = Ab1007 Hole HC; REGION 1..219: note = Ab1007 Knob LC
notes: conventional TCE positive control
**Q.** With B2 as the molecule, how does the “real-time TDCC of HCT-116-NR target cells” value (HCT-116-NR target cells) read?
**A.** depleted of target cells

B3: Ab0637: LS2B; HC: V29F+M100eL+M100hL on Ab0596; parent of R4b (antibody, V domains shown)
VH: EVQLVESGGGLVQPGGSLRLSCAASGFDFSSYSIHWVRQAPGKGLEWVASISPYYGSTYYADSVKGRFTISADTSKNTAYLQMNSLRAEDTAVYYCARYYEWYKYSLYLGSLGFDYWGQGTLVTVSS
VL: DIQMTQSPSSLSASVGDRVTITCRASQSVSSAVAWYQQKPGKAPKLLIYSASSLYSGVPSRFSGSRSGTDFTLTISSLQPEDFATYYCQQGGYSLITFGQGTKVEIK
**Q.** Which results are given for B3?
**A.** SEC RT (UPLC-SEC retention time): 17.205 min; TM (° C.) ([1]; Table 13): 78.3 °C
